Experimental findings from US20070224124A1 (UNIVERSITY OF SOUTH FLORIDA, published 2007) are described below.

B1: Shc adapter protein (other, UniProt P98083 1-579, looked up)
chain: MDLLPPKPKYNPLRNESLSSLEEGASGSTPPEELPSPSASSLGPILPPLPGDDSPTTLCSFFPRMSNLKLANPAGGRLGPKGEPGKAAEDGEGSAGAALRDSGLLPLLQDMNKLSGGGGRRTRVEGGQLGGEEWTRHGSFVNKPTRGWLHPNDKVMGPGVSYLVRYMGCVEVLQSMRALDFNTRTQVTREAISLVCEAVPGAKGATRRRKPCSRPLSSILGRSNLKFAGMPITLTVSTSSLNLMAADCKQIIANHHMQSISFASGGDPDTAEYVAYVAKDPVNQRACHILECPEGLAQDVISTIGQAFELRFKQYLRNPPKLVTPHDRMAGFDGSAWDEEEEEPPDHQYYNDFPGKEPPLGGVVDMRLREGAARPTLPSAQMSSHLGATLPIGQHAAGDHEVRKQMLPPPPCPGRELFDDPSYVNIQNLDKARQAGGGAGPPNPSLNGSAPRDLFDMKPFEDALRVPPPPQSMSMAEQLQGEPWFHGKLSRREAEALLQLNGDFLVRESTTTPGQYVLTGLQSGQPKHLLLVDPEGVVRTKDHRFESVSHLISYHMDNHLPIISAGSELCLQQPVDRKV
notes: Its expression in ES cells was confirmed by immunoblot of whole cell lysate
B2: s-SHIP (stem-SHIP; SH2-lacking isoform of SH2-containing inositol 5'-phosphatase, approximately 104 kd) (enzyme, mouse, UniProt Q9ES52-5 1-928, looked up)
chain: MVAKLSQLTSLLSSIEDKVKSLLHEGSESTNRRSLIPPVTFEVKSESLGIPQKMHLKVDVESGKLIVKKSKDGSEDKFYSHKKILQLIKSQKFLNKLVILVETEKEKILRKEYVFADSKKREGFCQLLQQMKNKHSEQPEPDMITIFIGTWNMGNAPPPKKITSWFLSKGQGKTRDDSADYIPHDIYVIGTQEDPLGEKEWLELLRHSLQEVTSMTFKTVAIHTLWNIRIVVLAKPEHENRISHICTDNVKTGIANTLGNKGAVGVSFMFNGTSLGFVNSHLTSGSEKKLRRNQNYMNILRFLALGDKKLSPFNITHRFTHLFWLGDLNYRVELPTWEAEAIIQKIKQQQYSDLLAHDQLLLERKDQKVFLHFEEEEITFAPTYRFERLTRDKYAYTKQKATGMKYNLPSWCDRVLWKSYPLVHVVCQSYGSTSDIMTSDHSPVFATFEAGVTSQFVSKNGPGTVDSQGQIEFLACYATLKTKSQTKFYLEFHSSCLESFVKSQEGENEEGSEGELVVRFGETLPKLKPIISDPEYLLDQHILISIKSSDSDESYGEGCIALRLETTEAQHPIYTPLTHHGEMTGHFRGEIKLQTSQGKMREKLYDFVKTERDESSGMKCLKNLTSHDPMRQWEPSGRVPACGVSSLNEMINPNYIGMGPFGQPLHGKSTLSPDQQLTAWSYDQLPKDSSLGPGRGEGPPTPPSQPPLSPKKFSSSTANRGPCPRVQEARPGDLGKVEALLQEDLLLTKPEMFENPLYGSVSSFPKLVPRKEQESPKMLRKEPPPCPDPGISSPSIVLPKAQEVESVKGTSKQAPVPVLGPTPRIRSFTCSSSAEGRMTSGDKSQGKPKASASSQAPVPVKRPVKPSRSEMSQQTTPIPAPRPPLPVKSPAVLQLQHSKGRDYRDNTELPHHGKHRQEEGLLGRTAMQ
notes: also called 8-SHIP protein isoform; 104-kd and 97-kd proteins

Test [1] addresses B2. The experiment in a line: co-immunoprecipitation from ES-TL1 cell lysate with P2C6 anti-SHIP antibody, immunoblot for Shc. The source says: (§1) FIG. 6 illustrates how ES cells express the 8-SHIP protein isoform that associates with the Grb2 adapter protein. (A) Immunoprecipitation and immunoblot detection of s-SHIP in ES cell lysates. […] No tyrosine phosphorylation of these proteins was detected when they were probed with the 4G10 anti-phosphotyrosine antibody. For comparison, lysates from 293T cells transfected with SHIP cDNA (lane 1) and s-SHIP cDNA (lane 2) were included in the blots. To further assess the tyrosine phosphorylation status of s-SHIP, timed LIF stimulation studies were performed. ES-TL1 cells incubated for 5 hours without LIF were stimulated with 2000 U/mL LIF for 0, 2, 5, or 10 minutes and were rapidly lysed. Equal amounts of total protein were immunoprecipitated with the P2C6 antibody and probed separately with the P2C6 and 4G10 antibodies (lanes 6-9). No tyrosine phosphorylation of s-SHIP was detected at any time point with the 4G10 antibody. For comparison, A20 8-lymphoid cells were stimulated with antiIgG antibody for 0 or 5 minutes, lysed, immunoprecipitated with P2C6, and probed with P2C6 and 4G10 (lanes 3, 4), showing prominent tyrosine phosphorylation of SHIP at 5 minutes. Molecular mass standards are indicated on the right. (B) s-SHIP associates with Grb2 but not Shc in ES cells. ES-TL1 cell lysates were prepared and immunoprecipitated with the […] anti-SHIP monoclonal antibody. […]

The target in the next test is T1, mSosI ( (endogenous in murine ES …, UniProt Q62245 1-1319)).
T1 construct: Its expression in ES cells was confirmed by immunoblot of whole cell lysate; also called mSos1
T1 sequence (looked up): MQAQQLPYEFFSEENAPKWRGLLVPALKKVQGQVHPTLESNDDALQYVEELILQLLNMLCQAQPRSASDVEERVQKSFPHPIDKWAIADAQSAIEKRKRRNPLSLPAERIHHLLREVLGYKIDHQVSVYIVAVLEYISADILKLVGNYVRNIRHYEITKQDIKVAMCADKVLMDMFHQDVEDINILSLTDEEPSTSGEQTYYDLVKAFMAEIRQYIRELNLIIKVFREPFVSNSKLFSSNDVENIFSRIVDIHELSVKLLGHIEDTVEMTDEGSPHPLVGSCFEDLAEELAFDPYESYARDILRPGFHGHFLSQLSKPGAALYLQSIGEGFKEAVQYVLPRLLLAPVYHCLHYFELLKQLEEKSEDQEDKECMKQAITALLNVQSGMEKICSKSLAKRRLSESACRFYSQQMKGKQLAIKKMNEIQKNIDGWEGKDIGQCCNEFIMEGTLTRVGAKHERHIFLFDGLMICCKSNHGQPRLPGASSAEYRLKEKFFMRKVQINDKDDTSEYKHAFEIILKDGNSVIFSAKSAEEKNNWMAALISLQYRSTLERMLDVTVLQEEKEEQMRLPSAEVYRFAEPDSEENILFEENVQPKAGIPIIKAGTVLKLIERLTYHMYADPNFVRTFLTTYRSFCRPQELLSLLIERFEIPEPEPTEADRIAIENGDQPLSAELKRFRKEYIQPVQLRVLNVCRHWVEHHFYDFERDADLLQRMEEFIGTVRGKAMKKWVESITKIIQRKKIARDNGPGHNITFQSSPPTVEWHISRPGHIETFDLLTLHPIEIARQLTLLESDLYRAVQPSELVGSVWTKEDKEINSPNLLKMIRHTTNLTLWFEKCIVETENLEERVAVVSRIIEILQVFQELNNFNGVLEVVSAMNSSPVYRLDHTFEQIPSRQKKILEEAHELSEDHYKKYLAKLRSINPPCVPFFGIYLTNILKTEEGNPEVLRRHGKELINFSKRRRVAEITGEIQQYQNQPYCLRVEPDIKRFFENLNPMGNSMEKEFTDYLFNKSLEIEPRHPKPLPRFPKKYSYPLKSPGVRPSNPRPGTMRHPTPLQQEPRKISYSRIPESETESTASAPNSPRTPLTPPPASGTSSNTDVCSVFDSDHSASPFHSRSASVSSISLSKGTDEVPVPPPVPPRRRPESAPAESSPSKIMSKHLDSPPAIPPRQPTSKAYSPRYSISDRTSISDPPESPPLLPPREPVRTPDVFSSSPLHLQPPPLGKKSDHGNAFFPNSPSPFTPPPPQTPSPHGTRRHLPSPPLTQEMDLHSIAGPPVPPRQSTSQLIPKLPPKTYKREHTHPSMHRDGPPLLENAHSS
As to the kind of experiment: co-immunoprecipitation from ES-TL1 cell lysate with P2C6 anti-SHIP antibody, immunoblot for mSosI.
Excerpt: as §1

Take B1: the binding result in test [1] is recorded as “no binding”. For the molecule B2, the binding result in the test with mSosI is listed as “no binding”.
